Measured values: patent US20110129816A1 (NATIONAL UNIVERSITY CORPORATION UNIVERSITY OF TOYAMA, published 2011)
Changes are numbered by the printed parent chain. Where two headings read alike, the source gives them in different places.

Assays:
[1] = target: nucleoprotein of influenza virus A/Panama/2007/99 (H3N2) (influenza A virus A/Panama/2007/99 (H3N2)); assay: sandwich CLIA, acridinium label M322211, S/N>=2.1
[2] = target: nucleoprotein of influenza virus A/Beijing/262/95 (H1N1) (influenza A virus A/Beijing/262/95 (H1N1)); assay: sandwich CLIA, acridinium label M322211, S/N>=2.1
[3] = target: nucleoprotein of influenza virus B/Victoria/504/00 (influenza B virus B/Victoria/504/00); assay: sandwich CLIA, acridinium label M2110171, S/N>=2.1
[4] = target: nucleoprotein of influenza virus B/Victoria/504/00 (influenza B virus B/Victoria/504/00); assay: SPR (Biacore 2000), antibody captured by anti-IgG
[5] = target: T1, nucleoprotein of influenza virus B/Singapore/222/79 (influenza B virus B/Singapore/222/79, UniProt P04666 1-560); assay: same-clone sandwich CLIA
T1 sequence: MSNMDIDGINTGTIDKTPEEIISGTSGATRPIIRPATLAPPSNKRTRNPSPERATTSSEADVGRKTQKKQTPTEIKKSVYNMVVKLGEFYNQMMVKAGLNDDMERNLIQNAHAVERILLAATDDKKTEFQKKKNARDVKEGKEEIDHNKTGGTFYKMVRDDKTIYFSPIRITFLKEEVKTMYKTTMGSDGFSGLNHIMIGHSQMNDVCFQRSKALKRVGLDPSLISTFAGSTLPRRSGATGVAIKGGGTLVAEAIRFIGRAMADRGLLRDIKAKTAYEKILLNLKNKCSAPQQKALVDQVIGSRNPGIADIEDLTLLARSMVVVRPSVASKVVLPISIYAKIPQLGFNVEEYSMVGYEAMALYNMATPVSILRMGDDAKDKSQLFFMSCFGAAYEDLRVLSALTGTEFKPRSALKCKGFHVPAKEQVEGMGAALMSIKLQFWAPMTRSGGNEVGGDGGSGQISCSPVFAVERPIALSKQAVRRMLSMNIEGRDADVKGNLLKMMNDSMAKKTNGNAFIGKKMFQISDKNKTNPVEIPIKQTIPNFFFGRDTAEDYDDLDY

[6] = target: T2, nucleoprotein of influenza virus B/Ann Arbor/1/86 (viral strain) (influenza B virus B/Ann Arbor/1/86, UniProt P11102 1-560); assay: same-clone sandwich CLIA
T2 sequence: T1 sequence with T11A, I21T, I22T, V62I, K65R, A239T, I244T, S465N, V534I, P537Q

[7] = target: T3, nucleoprotein of influenza virus B/Panama/45/90 (influenza B virus B/Panama/45/90, UniProt O36433 1-560); assay: same-clone sandwich CLIA
T3 sequence: T1 sequence with I22T, A28T, K131R, T406I

[8] = target: recombinant influenza A virus nucleoprotein (influenza A virus A/Puerto Rico/8/34, UniProt P03466 1-498); assay: ELISA on coated recombinant nucleoprotein, culture supernatant
[9] = target: nucleoprotein of influenza virus B/Victoria/504/00 (influenza B virus B/Victoria/504/00); assay: sandwich CLIA, acridinium label 23G327, S/N>=2.1
[10] = target: T1, nucleoprotein of influenza virus …; assay: same-clone sandwich CLIA; remark: listed apart in the source
[11] = target: T2, nucleoprotein of influenza virus B/Ann …; assay: same-clone sandwich CLIA; remark: listed apart in the source
[12] = target: T3, nucleoprotein of influenza virus …; assay: same-clone sandwich CLIA; remark: listed apart in the source
[13] = target: nucleoprotein of influenza virus A/Beijing/262/95 (H1N1) (influenza A virus A/Beijing/262/95 (H1N1)); assay: SPR (Biacore 2000), antibody fixed directly on CM5, virus 10 µg/mL
[14] = target: nucleoprotein of influenza virus A/Panama/2007/99 (H3N2) (influenza A virus A/Panama/2007/99 (H3N2)); assay: sandwich CLIA, acridinium label 23G285, S/N>=2.1
[15] = target: nucleoprotein of influenza virus A/Beijing/262/95 (H1N1) (influenza A virus A/Beijing/262/95 (H1N1)); assay: sandwich CLIA, acridinium label 23G285, S/N>=2.1

Molecule: mouse anti-influenza A virus nucleoprotein monoclonal antibody ATCC HB-65
- detection sensitivity [1]: 50 ng/mL
- detection sensitivity [2]: 50 ng/mL

B1: human anti-influenza B virus nucleoprotein monoclonal antibody 23G327 (antibody, V domains shown)
VH: QVQLVQSGAEVKRPGASVKVSCKASGYNLIDFYVNWVRQVPGQGLEWMGYINPDSGGAHYEGKFQGRVIMTRDTSINTAYMELPSLTSDDTAVYFCARGASSGLLTYYYGLDVWGEGTTVIVSS
VL: DIQMTQSPSSLSASIGDRVTITCRASPGINSYLAWYQHKPGKAPKLLIYAASTLQSGVPSRFSGSGSGTDFTLTISSLQPEDVATYYCQKYNSAPWTFGPGTKVEIK
notes: also called 23G327 antibody
- detection sensitivity [3]: 31.3 ng/mL
- reactivity (bound antigen per bound antibody) relative to 41027 [4]: 2 fold
- reactivity (bound antigen per bound antibody) relative to M2110171 [4]: 1.2 fold
- reactivity (bound antigen per bound antibody) relative to antibody 2/3 [4]: 0.8 fold
- binding result [5]: binds
- binding result [6]: binds
- binding result [7]: binds
- binding result [8]: no binding
- detection sensitivity [9]: 125 ng/mL

B2: human anti-influenza A virus nucleoprotein monoclonal antibody 23G272 (antibody, V domains shown)
VH: QVQLVQSGAEVKKPGSSVKVSCKATGDTFSSYSISWVRQAPGQGLEWMGRVTPSFGISLYAQKFQGRVTITADRSSSTAYMELNNLTSDDTAVYYCAAGGLVVVVANHWGQGTLVTVSS
VL: EIVLTQSPATLSASVGDRVTITCRASQDITSSLGWYQQRAGEAPKLLLFAASRLESGVPSRFSGSGSGTEYTLTISNLQPEDFATYYCLHYFGSRPWTFGQGTKVEIKR
notes: also called 23G272 antibody
- binding result [10]: no binding (tested: S/N<2.1)
- binding result [11]: no binding (tested: S/N<2.1)
- binding result [12]: no binding (tested: S/N<2.1)
- amount of bound antigens relative to HB-65 [13]: 10 fold

B3: human anti-influenza A virus nucleoprotein monoclonal antibody 23G312 (antibody, V domains shown)
VH: QVQLVQSGGGLVQPGRSLRLSCIASGFSFDDYAMHWVRQIPGKGLEWVSGISWNSGARGYADSVKGRFTISRDNAKNSLYLQMNSLRVGDTAFYYCARDMGAGPNDYDTSGNYPLHLYGMDVWGHGTTVTVSS
VL: EIVLTQSPATLSVSPGDRATLSCRASQSVSDKLAWYQQKPGQAPRLLIYGAYTRATGTPARFSGSGSGTEFTLSITGLQAEDFAIYYCHQYNNWPLTFGGGTKVDIK
notes: also called 23G312 antibody
- binding result [10]: no binding (tested: S/N<2.1)
- binding result [11]: no binding (tested: S/N<2.1)
- binding result [12]: no binding (tested: S/N<2.1)

B4: human anti-influenza A virus nucleoprotein monoclonal antibody 23G268 (antibody, V domains shown)
VH: QVQLVQSGAVVKKPGDSVKVSCKASGYTFTTYWMHWVRQAPGQGPEWMGIVNPTGGTVMYAKKFQGRVIMTRDTSTTTVFLQLNGLESEDTAIYYCARDLGPARVDFDWLSTFVSWGQGTLVTVSS
VL: DIQMTQSPSSLSASVGDRVIITCRASQGITRHLNWYQQKSGKAPKLLIYDASSLQSGVPSRFSGSGSGADFTLTISSVQPEDFATYYCQQSYSNPPTFGPGTKVDIKR
notes: also called 23G268 antibody
- detection sensitivity [14]: 6.25 ng/mL
- detection sensitivity [15]: 6.25 ng/mL
- binding result [10]: no binding (tested: S/N<2.1)
- binding result [11]: no binding (tested: S/N<2.1)
- binding result [12]: no binding (tested: S/N<2.1)

B5: human anti-influenza A virus nucleoprotein monoclonal antibody 23G494 (antibody, V domains shown)
VH: QVQLVQSGGGLVKPGGSLRLSCAGSGFSFSDYYMTWIRQAPGKGLEWVSSINSGSTVTNYADSVQGRFTISRDKNSVYLQMNSLRTEDTAVYYCARDFGIKAGTSDYWGQGTLVTVSS
VL: DIQMTQSPSSLSASVGDRVTITCRASQTISNFLNWYQQKPGKAPKLLIYAASRLQSWVPSRFTGSGSGTDFALTISSLQPEDFATYYCQQTFSPRITFGPGTKVEMKR
notes: also called 23G494 antibody
- binding result [10]: no binding (tested: S/N<2.1)
- binding result [11]: no binding (tested: S/N<2.1)
- binding result [12]: no binding (tested: S/N<2.1)

B6: human anti-influenza A virus nucleoprotein monoclonal antibody 23G447 (antibody, V domains shown)
VH: QVQLQESGPGLVKPSQTLSLTCSVSGGSISNPDHYWNWIRQPPGKGLEWIGYIYYTGRTWYSPSLKSRVSLSVDTSKSQFSLNVDSVIAADTAVYYCARSHVWFGELYWGQGALVTVSS
VL: QSVLTQPPSVSAAPGQKVTISCSGRSSNVGDNYVSWYQQFPGTAPKLLIYDNTKRPSGIPDRFSGSKSGTSATLGITGLQTGDEAAYYCATWDSVLSAGVFGGGTKLTVL
notes: also called 23G447 antibody
- binding result [10]: no binding (tested: S/N<2.1)
- binding result [11]: no binding (tested: S/N<2.1)
- binding result [12]: no binding (tested: S/N<2.1)

B7: human anti-influenza A virus nucleoprotein monoclonal antibody 23G285 (antibody, V domains shown)
VH: QVQLVQSGGGVVQPGRSLRLSCAASGFTFSRYGMHWVRQAPGKGLEWVAVILYEGINKDYADSVKGRFTISRDNSKNTLYLQMNSLRAEDTAVYYCARDRELRLDYWGQGTLVTVSS
VL: QSVLTQPPSVSGAPGQRVTFSCTGSSSNIGAGYDVNWYQQLPGTAPKVLIYGNTNRPSGVPDRFSASKSGTSASLAITGLQAEDEADYYCQSYDSSLRGYVFGTGTKVSVL
notes: also called 23G285 antibody
- binding result [10]: no binding (tested: S/N<2.1)
- binding result [11]: no binding (tested: S/N<2.1)
- binding result [12]: no binding (tested: S/N<2.1)
